Test results published in the supplement of paper PMC12764529.
± gives the half width of the 95% confidence interval.

Tests used:
[1] = folding stability dG unfold from trypsin proteolysis; higher = more stable
Summary of the method: (§1)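 Sequencing followed digestion of designed mini-proteins with trypsin and chymotrypsin, each at 11 concentrations in threefold dilutions together with a no-protease condition. The mini-proteins were under 80 residues, had no cysteine, sat in a PA-tagged cDNA display construct, and were kept only if AlphaFold2 dimer inter-PAE was above 15. From the counts, Bayesian fitting gave K50, and unfolding free energy was derived against a sequence-predicted unfolded-state K50 and a shared folded-state K50, per protease or combined.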

[2] = folding stability dG unfold from chymotrypsin proteolysis; higher = more stable
Summary of the method: as §1

[3] = folding stability dG unfold (combined trypsin and chymotrypsin); higher = more stable
Summary of the method: as §1

| Sequence | folding stability dG unfold [1] [kcal/mol] | folding stability dG unfold [2] [kcal/mol] | folding stability dG unfold [3] [kcal/mol] |
| --- | --- | --- | --- |
| SAGPGHELKIDIERDPGNGIIKLSITYPNGIKYEMLIFRNPDNGKWFIFINIERDPGRIKIDIGIFPLSAGG [r19_394_TrROS] | 3.28 ± 0.083 | 5.05 ± 0.13 | 4.7 ± 0.2 |
| DYRVVIEDLELVPAPPGTRISMPAWVDHDGVRYGEVESYVDPETGTVTLRLLVEPDGEPRELTLTLPVPPES [r1_47_TrMRF] | 0.545 ± 0.034 | 0.629 ± 0.061 | 0.625 ± 0.061 |
| SAGGSGATYLSKYEIPLPNGKKLTIIEAYKNPETDLILYIAKTDDGTEYPFVYPSSWSPEDAIKALISSAGG [r13_470_TrMRF] | 2.25 ± 0.082 | 2.91 ± 0.034 | 2.69 ± 0.086 |
| SAGGSAMITLEDIKALGPDNPIRTFPETGLVFVERPGELTLYKFDPKTNTVTKLKTFNSPEEKEKLSAGGSA [r15_6_JUSTAS] | 0.405 ± 0.035 | 1.15 ± 0.083 | 0.863 ± 0.069 |
| SAGMNPNNPNVKTTTVTYTFPLPATESVEEAVERLKAEAEAAGKPIKTVEVTVERTPEDTVVIKATFVSSAG [r5_65_JUSTAS] | 1.34 ± 0.072 | 1.71 ± 0.057 | 1.59 ± 0.093 |
| SGPTSTVDPEFPGSTPGGTVTPSVVRVPVPPDEVERVIEEIRERAGVPGLKVERVERTADGVVLIEVSLPSA [r9_1101_JUSTAS] | 0.36 ± 0.029 | 1.15 ± 0.015 | 0.882 ± 0.066 |
| SAGGSAGGSAGAGSWKDALKASSNETVTIPLPPTGKTLKITFSKSDDGSWKVDIEVFPAESAGGSAGGSAGG [r11_13_TrMRF] | 2.03 ± 0.13 | 2.18 ± 0.079 | 2.12 ± 0.15 |
| SMTVKIELEVEIEVPETPEELRKLAEALAEELGIEEVKVVEIEYDPETKTVRVKVEITVKLPPPPPEEEESA [r9_918_TrROS_Hall] | 3.11 ± 0.14 | 2.89 ± 0.25 | 3.13 ± 0.21 |
| SAGGSAGGSAGGKKYKPVKKIKVNGKTYTIIKKDGKYIIYDEKTKKKIVIKPGEKIKIKSAGGSAGGSAGGS [r10_559_TrROS_Hall] | 0.621 ± 0.045 | 2.21 ± 0.034 | 1.83 ± 0.34 |
| SAGTEEELVERAKELARELAEELGVEAEAEVTVDPLPDVLVVNLTVRLRLPGGETVELPLTLTFPREFLSAG [r5_609_TrMRF] | 2.71 ± 0.095 | 3.3 ± 0.035 | 3.08 ± 0.05 |
| SAGNIQIEPTDGKWRIRITYWMPDPDEITPDTFKNLLRNLGLPIKDIDIEPEPNPNGQRYVTAEIWIPVSAG [r5_922_TrROS] | 2.84 ± 0.043 | 3.34 ± 0.071 | 3.23 ± 0.059 |
| SAGGSSMTTKTINLSLPNGVEELTITITTPPDGTYNATFYFPKTGKKTTHNFTSEEEIEKFIEELIKESAGG [r13_857_JUSTAS] | 2.97 ± 0.086 | 4.291 ± 0.036 | 4.01 ± 0.089 |
| SAGGSAGGSADPSVKPPVIKRLVIDIPLEELEKLFPGKLEKAVELAEEAVKLGFDEVVILGGSAGGSAGGSA [r18_441_TrMRF] | 0.116 ± 0.031 | 1.12 ± 0.023 | 0.793 ± 0.049 |
| SAKKVKPIAKLTITDENGNTYEITVTVKEVDGKLVVEAEVYNKDGELVARVTAVFDNGKLVAVSIELLPSAG [r14_828_TrROS_Hall] | 2.11 ± 0.13 | 3.03 ± 0.072 | 2.8 ± 0.17 |
| SAGGSAGGSAGGENPVDFKARVELLSGVVELTYTNEDGEPTTTLEEVVALKIEIEPSNNSAGGSAGGSAGGS [r10_1212_TrMRF] | 1.23 ± 0.046 | 1.81 ± 0.062 | 1.65 ± 0.073 |
| SAGGSAEEDEVVTIRAVLENGEVRELEVKLPEGTRIYIPGTGEVREVPFGDEVPVPANSDLLVEPVSAGGSA [r15_152_TrMRF] | -0.106 ± 0.13 | -0.642 ± 0.25 | -0.819 ± 0.62 |
| SAGGGSVSTSVTPDPATGLVTVTVTLTRTTPTPSPGTTTTTTTITVTVQVPPSYQPTATITVSVPASLSAGG [r13_450_JUSTAS] | 3.49 ± 0.16 | 3.91 ± 0.12 | 3.72 ± 0.082 |
| SALTLEIELEFELEDGYRVTVRARLEFDPETNELTIEVEVRIEPLPPPPPPPETVLVKDENGNWHPLEDLSA [r9_898_TrROS_Hall] | 3.22 ± 0.14 | 3.44 ± 0.16 | 3.27 ± 0.15 |
| SAGGSAGGSAGKKKKKKPKKVKSVKIKITIKNKNGEKKEITVTFNKDGKLTLEEIKKLLKSAGGSAGGSAGG [r11_759_TrROS_Hall] | 2.22 ± 0.056 | 2.51 ± 0.12 | 2.28 ± 0.21 |
| SAGGSAGGSAPMKIDEITDVYPNPNRPKIIIKWRGPNGQPMVFDPENGKWMTPEEALDALKSAGGSAGGSAG [r3_206_TrROS] | 0.571 ± 0.059 | 1.12 ± 0.062 | 0.935 ± 0.046 |
| SMEVEFDPENRTIVATVPEGVDPLAVAATLLAVVRELFDSGPVRLIVTNGDEVLEYLLGEDVLEVRPAGESA [r9_224_TrMRF] | 3.26 ± 0.11 | 4.21 ± 0.11 | 4.01 ± 0.1 |

| Sequence | folding stability dG unfold [1] [kcal/mol] | folding stability dG unfold [2] [kcal/mol] | folding stability dG unfold [3] [kcal/mol] |
| --- | --- | --- | --- |
| SAGGSAGGSAGGSPGVGERVVPVEDGVVRVRVFPDFAVVEYENGGVETMTLDDLVRALSSAGGSAGGSAGGS [r4_242_TrMRF] | 0.497 ± 0.064 | 0.65 ± 0.053 | 0.601 ± 0.14 |
| SAGGPGTREVEITIPADELREEHPNLTDEELVEEVMELARGIAQEQGYPIKKVDITHDKDGWVTIKLSAGGS [r8_368_TrROS] | 0.383 ± 0.091 | 0.152 ± 0.11 | 0.322 ± 0.16 |
| SAGGKEVKIKIETKTLPNGVKVVKMTVELPDGKTVEMVMVENKKTGKMVMFEVKLDKNGKIVEIKAFPSAGG [r13_323_TrROS_Hall] | 2.66 ± 0.16 | 3.43 ± 0.16 | 3.33 ± 0.41 |
| SAGGSAGGSSMYTYPELGVKVTTTPLPTDSTLVTATFPDGSVYKFTVDPSGNLVTSTPIVVNSSAGGSAGGS [r12_56_JUSTAS] | 0.326 ± 0.018 | 1.01 ± 0.064 | 0.784 ± 0.06 |
| SMPMTVEEFLEANPDVILIRLPNEKVIFINPEEEKAFVLLPETGEVLVIDATLEEVLELVPEFGAEILDESA [r9_721_TrMRF] | 2 ± 0.087 | 2.558 ± 0.025 | 2.34 ± 0.052 |
| SAGGSAGGMKVKIVSFDPENQEVVIYDEKTGKEIVVKAKSVEELKAALEKLGLEVEVEVLPPEESAGGSAGG [r6_27_TrROS_Hall] | 2.99 ± 0.43 | 3.19 ± 0.26 | 3.3 ± 0.39 |
| SAGGSAGGTAEELARKLEEALREAGYEVEKIEVVRVERKGDKVTIEVRVTLPDGRKLELRIELDSAGGSAGG [r6_839_TrROS_Hall] | 4.09 ± 0.3 | 3.22 ± 0.13 | 3.67 ± 0.21 |
| SAGGSMKFSATVEYDPANNIYTVTVPITRKDTGEVIPVSVPVPGSDLTTAEQLAEEIAEKLEKEGLSAGGSA [r2_221_JUSTAS] | 0.627 ± 0.092 | 0.518 ± 0.14 | 0.621 ± 0.19 |
| SAGGSASSPGTPVKLNVNAIITKKLPDGTITTEPGRTLDLPEEEAIEYLKSLPSSYSVEIESIVVESAGGSA [r15_833_JUSTAS] | -0.347 ± 0.15 | 0.0371 ± 0.15 | -0.115 ± 0.087 |
| SAGGSAGGSAGGSVVPTTSYSPDGTLTLTTETVTPSSNGLTVTSSTTVRPLPTPASPAASAGGSAGGSAGGS [r10_1200_JUSTAS] | 1.35 ± 0.18 | 1.01 ± 0.039 | 1.04 ± 0.11 |
| SAGGSAGGSAMTRDVTIKVPPGVTPEEVFEKLKKENPNVTSYTTTTLPDGTITVTITIEDSSAGGSAGGSAG [r3_371_JUSTAS] | 3.94 ± 0.23 | 4.04 ± 0.12 | 4.05 ± 0.19 |
| SSVTLTLTAPLPDNTTVTVEVTLTPLPEKGLVVANPTVTVTTLTPDADGNLTTSSAPATFTVVVPPELAFSA [r9_1137_TrMRF] | 1.48 ± 0.061 | 2.1 ± 0.11 | 1.86 ± 0.11 |
| SAGGSAGGSAKIKVLIKITNKDGKKKEILLEAETEEEALEAAKKLAEKEINGKKYKIEIKPLSAGGSAGGSA [r18_457_TrROS_Hall] | 1.83 ± 0.074 | 2.08 ± 0.044 | 1.96 ± 0.11 |
| SAGGSAGGMRVRLTFPDGSVVELDLSSLPFSPEEVERAGEEELRALLEEAYPDREIELERVPEPSAGGSAGG [r6_165_JUSTAS] | 2.13 ± 0.056 | 2.93 ± 0.032 | 2.63 ± 0.051 |
| SAGGSAGGSAGGKPKKVVIYIELTPEQEEAIKKGKSLEEVVEELIKEAEKKGLEVEIVGSAGGSAGGSAGGS [r10_890_TrROS_Hall] | 1.2 ± 0.029 | 1.93 ± 0.067 | 1.62 ± 0.14 |
| SAGNPPVTITITINPFRHGDEPMYHVKIKNPGGKEREIPFPPDEFKEQIENEFPNIDEIEVEPMRLPPGSAG [r5_25_TrROS] | 0.207 ± 0.14 | 0.615 ± 0.29 | 0.408 ± 0.49 |
| SAKEEEKKKKKEKKKPKPKTVEITVYINGKKIKKIKFNKKTKKITITLENGKKITIPPGMSLEEILKKLSAG [r14_59_TrROS_Hall] | 2.16 ± 0.16 | 3.37 ± 0.1 | 2.88 ± 0.24 |
| SAGGMVLFRIRFRTGPDGIVRLDPELLEQAEGADIDEDDPRVALILAEPEFLEKLSPELLEEAEILPSAGGS [r16_328_TrMRF] | 0.607 ± 0.1 | 0.606 ± 0.12 | 0.684 ± 0.047 |
| SAGGSAGGSAGGDTVEIELRAFFPETGLIITPTITIDKNGKIISINPRIEPLPPPLEGILSAGGSAGGSAGG [r7_135_TrMRF] | 0.341 ± 0.069 | -0.253 ± 0.1 | 0.0659 ± 0.23 |
| SAGGMSVVIPVRPEDREEVRELLEALPSEDVKVVIYNPVTGEKREVTPEEARALLEATDEPLVIEVRSAGGS [r16_263_TrMRF] | 1.68 ± 0.046 | 1.89 ± 0.023 | 1.84 ± 0.041 |
| SAGVTITTNPESGTVTITIPFPDGSSATIELNYGGSLPTKPSITSFKVNPYDNGKPIIPADELVKKILSSAG [r5_842_TrMRF] | 0.96 ± 0.056 | 1.57 ± 0.13 | 1.39 ± 0.35 |
